The results in this text go back to patent publication EP2468863A1.

The target in this assay is CEACAM1 expressed on transfected cells (CHO-CEACAM1, HeLa CC1, HeLa-CC1H) (human) (UniProt P13688). Kind of assay: cell-based or functional assay.
UniProt P13688, sequence (P13688 35-526): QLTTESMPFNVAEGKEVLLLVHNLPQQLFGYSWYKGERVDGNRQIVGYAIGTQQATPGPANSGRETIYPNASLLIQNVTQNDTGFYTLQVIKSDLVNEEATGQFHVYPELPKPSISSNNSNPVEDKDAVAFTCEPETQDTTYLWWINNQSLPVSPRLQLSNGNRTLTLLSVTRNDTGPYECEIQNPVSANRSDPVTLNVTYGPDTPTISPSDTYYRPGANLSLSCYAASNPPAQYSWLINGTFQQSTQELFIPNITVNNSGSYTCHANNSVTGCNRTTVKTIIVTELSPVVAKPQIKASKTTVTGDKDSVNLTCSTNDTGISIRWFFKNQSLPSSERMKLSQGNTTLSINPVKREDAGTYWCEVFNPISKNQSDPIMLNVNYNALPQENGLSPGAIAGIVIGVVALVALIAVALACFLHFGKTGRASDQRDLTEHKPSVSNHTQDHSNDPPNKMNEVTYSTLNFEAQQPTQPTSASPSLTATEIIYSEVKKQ

The substance “recombinant UspA1 fragment 4-7 (peptide)” had an inhibition of binding of H. influenzae to CHO-CEACAM1 transfectants of 10 µg per ml and an inhibition of binding of M. catarrhalis strain MX1 to CHO-CEACAM1 transfectants of 1 µg/mL.
